Measurements published in US9951359B2, “Heat-stable, FE-dependent alcohol dehydrogenase for aldehyde detoxification” (UT-BATTELLE, LLC, priority 2013, dated 2018).
Like-named read-outs stand apart in the source and are kept apart here.

B1: BdhA: heat-stable, NADPH- and iron-dependent alcohol dehydrogenase cloned from Thermoanaerobacter pseudethanolicus 39E (SEQ ID NO: 2) (protein, listed as Thermoanaerobacter pseudethanolicus)
chain: MMKFEFYNPTRLIFGAGSLGQLGKVVNQYGKKALLVIGGGSVKKSGAFDRAVASLKAAGVLVVEFSGVEPNPRLSTVVRASELAKKEACDVVIGMGGGSVMDASKVIAASVLYEGDPKDMLVRAGKAPRLPERALPIITVPTLAATGSEMNNGAVITIDDEGEKLKTFVQAEVLYPRVAVVDPELTMTVPKNHTAFGVCDIITHVTEGYFNGIDGTPLQDRFAEGVILTVLEWGPKAVSDGSDLEARTQVQWASIVALNGWVQVGTNGAYPVHMIEHTLSALYDIPHGAGLAVVNPAWMRFAARFRPERFAQFAQRIFGLTATGKDTLSLAMEGIDKFEEFLRSIGCPTRLSELGIGEITEEMLFRYAEETLKVLQDEEGRLPGRPSLRKEDIVEILRMAM

What was measured:
[1] = system: Thermoanaerobacter pseudethanolicus 39E (Teth39E); experiment: Growth of Teth39E with furan aldehydes (optical density at 600 nm); type: cell-based; details: for specific growth rate: 65° C.; for IC50: Thermoanaerobacter pseudethanolicus, read-out: furan aldehyde concentration which resulted in 50% inhibition of growth (IC50)
Protocol: Teth39E (DSMZ 2355) was purchased from Deutsche Sammlung von Mikroorganismen and Zellkulturen GmbH (DSMZ). Anaerobic growth medium was prepared anaerobically by a modified Hungate technique and consisted of 4.5 mM KCl, 4.7 mM NH4Cl, 2.5 mM MgSO4.7H2O, 1.0 mM NaCl, 0.7 mM CaCl2.2H2O, […] resazurin, 2.8 mM cysteine-HCl, 6.0 mM NaHCO3, 1 mM potassium phosphate buffer (pH 6.8), 10 mM 3-(N-morpholino)-propanesulfonic acid (pH 6.8), 1× Wolfe's trace minerals, 1× Wolfe's vitamin supplement, 0.1% (w/v) yeast extract, and 40 mM glucose [Miller and Wolin (1974) Appl. Microbiol. 27:985-987; Wolin et al. (1963) J. Biol. Chem. 238:2882-2886]. Furan aldehydes were added from degassed concentrated stock solutions. Cultures were grown at 65° C. from a 1% inoculum in Balch tubes (10 mL) or 125 mL serum bottles (50 mL) Cell growth was monitored by optical density at 600 nm, either directly in the Balch tube using a Spectronic 200 spectrophotometer (Thermo Fisher Scientific, Waltham, Mass.) or as 200 μL samples transferred to a 96-well plate and read on a Synergy Mx plate reader (BioTek, Winooski, Vt.). All growth experiments were performed in triplicate.
Lower concentrations of furfural (10 and 20 mM) and 5-hydroxymethylfurfural (10 mM) stimulated growth of Teth39E, with increased cell yields after 12 h for both (see FIGS. 1A and 1B). […] The IC50 for 5-HMF was between 20 and 30 mM after both 12 and 24 h.

[2] = system: protein encoded by the Teth39_1597 locus (bdhA); experiment: Proteome comparison of Teth39E grown in the presence or absence of furfural; type: cell-based, Thermoanaerobacter pseudethanolicus 39E; details: Teth39E grown in the presence of 15 mM furfural
Protocol: To identify the enzymes responsible for furfural and 5-HMF conversion, the proteomes were compared for strain Teth39E grown in the presence or absence of 15 mM furfural.

BdhA (Teth39_1597) [3] = experiment: Optimal temperature and pH of purified BdhA enzyme (butyraldehyde, NADPH); type: biochemical, Thermoanaerobacter pseudethanolicus 39E
Protocol: The optimal temperature for BdhA activity was determined from purified enzyme as follows. A 1 liter culture of E. coli BL21 (DE3) harboring the pET30a-BdhA expression construct (see FIG. 6A) was grown to mid-log phase and induced with 0.4 mM IPTG and allowed to incubate for 16 h at 30° C. with shaking at 250 rpm. The induced cells were harvested via centrifugation at 5,000×g for 20 min at 4° C. and washed 3 times with 40 mL ice-cold phosphate buffered saline (PBS) at pH 7.2 and placed on ice. The cell pellet was resuspended in binding buffer (20 mM sodium phosphate, 500 mM NaCl, 20-40 mM imidazole, pH 7.4) containing 0.2 mg/mL lysozyme, 20 μg/mL DNAse, 1 mM MgCl2, 1 mM PMSF and stirred for 30 min at room temperature. The cells were then subjected to 5×2 min rounds of sonication (Branson Sonifier 450 with microtip, duty cycle at 30%) while kept in an ice water bath. The lysate was centrifuged at 7,500×g for 20 min at 4° C. and the supernatant was transferred to a new 50 mL conical tube. […] For determining the optimal temperature for BdhA, 1 mL assays containing 100 mM phosphate buffer (pH 7.5), 20 mM butyraldehyde, and 0.25 mM NADPH were monitored for loss of absorbance at 340 nm for 20 seconds at 30-90° C. in 5° C. intervals. […]
The optimum pH was also determined for BdhA by using butyraldehyde as the substrate and NADPH as the cofactor. […]

BdhA (Teth39_1597) [4] = experiment: Aldehyde reductase enzyme assay with whole cell lysates of E. coli overexpressing BdhA (NAD(P)H oxidation at 340 nm); type: biochemical, Thermoanaerobacter pseudethanolicus 39E; details: for specific activity with NADPH as a cofactor / BdhA Aldehyde Activities (specific activity): whole cell lysate; for BdhA Aldehyde Activities (specific activity): 60° C.; for BdhA Aldehyde Activities (specific activity) / Specific activity: aerobic
Protocol: Teth39E genomic DNA was isolated using the Wizard Genomic DNA Purification kit (Promega, Madison, Wis.). The bdha gene was PCR amplified using Phusion polymerase (New England Biolabs, Ipswich, Mass.) and cloned into pET30a (EMD Millipore, Billerica, Mass.) behind 6× His- and S-tags. Expression plasmids were transformed in BL21 (DE3) E. coli according to the manufacturer's protocol (Invitrogen, Grand Island, N.Y.). Cells were grown in 50 mL 2×YT medium at 37° C. to OD600 of 0.8-1.0, then induced with 100 μM isopropyl-β-D-thiogalactopyranoside and switched to 30° C. for 16 h. Cells were harvested at 4° C. (3,000×g, 30 min), washed in 50 mL 100 mM sodium phosphate buffer, pH 7 (buffer A), and re-suspended in 5 mL buffer A. Enzyme assays were performed aerobically at 60° C. with whole cell lysates and specific activity was determined by measuring the change in absorbance at 340 nm due to oxidation of NADPH or NADH.
Cell suspension (450 μL) was added to 0.1 mm zirconia beads (300 μL) and vortexed 4×60 sec with 30 sec on ice in between. Samples were centrifuged (14,000×g, 2 min) and the resulting supernatant was used for enzyme assays.
For the enzyme assays, Buffer A (1 mL), 10 mM NAD(P)H (25 μL), and 400 mM aldehyde (50 μL) were added to a 2 mL quartz cuvette, sealed with a butyl stopper, and equilibrated to 60° C. Assays were read at 340 nm (DU 800) for 150 sec to establish a baseline slope before whole cell lysate was added (1-5 μL). Cuvettes were inverted once to mix and read an additional 450 sec. The decrease in absorbance over time was calculated and the baseline slope was subtracted. NAD(P)H concentration was determined using the extinction coefficient (NADH: 6220 M^−1 cm ^−1, NADPH: 6270 M^−1 cm^−1) and specific activity was calculated as the change in μmoles NAD(P)H/min/mg of whole cell lysate protein. Protein concentration was determined using the Bradford assay (Bio-Rad, Hercules, Calif.) with bovine serum albumin as a standard. Specific activity was measured for the pET30a vector (control) and overexpressed Teth39_1597 (BdhA) with acetaldehyde, butyraldehyde, isobutyraldhyde, furfural, and 5-HMF. Furfural was also assayed under anaerobic conditions. BdhA activity was compared to the vector-only control.

Row | Molecule | specific growth rate ([1]; 10 mM furan aldehyde) [h⁻¹] | IC50 ([1]; after 12 h) [mM] | IC50 ([1]; after 24 h) [mM] | expression of Teth39_1597 protein upregulated [2] | specific growth rate ([1]; 20 mM furan aldehyde) [h⁻¹] | optimal temperature for BdhA activity (BdhA (Teth39_1597) [3]; 20 mM butyraldehyde, 0.25 mM NADPH, pH 7.5, 30-90° C.) [°C] | optimum pH (optimal relative activity) (BdhA (Teth39_1597) [3]; butyraldehyde, NADPH, buffers pH 4-10) [pH units] | activity above the vector control using NADH as the cofactor (BdhA (Teth39_1597) [4]; NADH as cofactor) | specific activity with NADPH as a cofactor (BdhA (Teth39_1597) [4]; butyraldehyde as substrate) | activity against butyraldehyde (BdhA (Teth39_1597) [4]; butyraldehyde, NADPH) | specific activity with NADPH as a cofactor (BdhA (Teth39_1597) [4]; expressed in E. coli, various aldehydes) | BdhA Aldehyde Activities (specific activity) (BdhA (Teth39_1597) [4]; substrate 5-HMF, NADPH) | BdhA Aldehyde Activities (specific activity) (BdhA (Teth39_1597) [4]; substrate acetaldehyde, NADPH) | BdhA Aldehyde Activities (specific activity) (BdhA (Teth39_1597) [4]; substrate butyraldehyde, NADPH) | BdhA Aldehyde Activities (specific activity) (BdhA (Teth39_1597) [4]; substrate furfural, NADPH) | BdhA Aldehyde Activities (specific activity) (BdhA (Teth39_1597) [4]; substrate isobutyraldehyde, NADPH) | Specific activity (BdhA (Teth39_1597) [4]; with 5-HMF, NADPH) [U] | Specific activity (BdhA (Teth39_1597) [4]; with furfural, NADPH) [U]
1 | O=Cc1ccc(CO)o1 [5-HMF, 5-hydroxymethyl furfural] | 0.51 ± 0.03 | 20 to 30 | 20 to 30 | – | – | – | – | – | – | – | – | – | – | – | – | – | – | –
2 | O=Cc1ccco1 [furfural] | 0.52 ± 0.03 | 30 | 30 to 40 | approximately 7 fold | 0.43 ± 0.03 | – | – | – | – | – | – | – | – | – | – | – | – | –
3 | B1 | – | – | – | – | – | 75 | 8.0 | No activity was detected | at least 14 μmole/min/mg | approximately 14.58±3.57 μmoles/min/mg | at least 0.5 μmole/min/mg | 10.06 ± 0.80 | 4.54 ± 0.76 | 14.58 ± 3.57 | 4.97 ± 0.17 | 0.63 ± 0.29 | 10.06±0.80 | 4.97±0.17
